Experimental findings from PMC8329861, “Structure of the unique tetrameric STENOFOLIA homeodomain bound with target promoter DNA” are described below.

Where a chain is given by its changes, count along the chain named.

In data set [1] the target is T1, STF-HD WT (Medicago truncatula, UniProt G0ZGT3 85-190).
T1 sequence: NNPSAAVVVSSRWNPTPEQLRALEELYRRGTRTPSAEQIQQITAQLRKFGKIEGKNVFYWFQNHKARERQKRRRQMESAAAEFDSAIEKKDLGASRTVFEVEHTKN
Description: EMSA (agarose); stable complex at 1:4 DNA:protein; PAGE EMSA: 10 mM Tris-HCl pH 7.5, 100 mM KCl, 1 mM DTT, 2.5% glycerol, 5 ng/ul poly(dI-dC), 0.05% NP-40, 0.05 ug/ul protein, 5 fmol/ul DNA, room temperature 30. Conditions: protein: recombinant; tags: 6xHis-MBP removed by TEV; chain copies: 4; label: 5' 6-FAM; blunt.

The target in another data set is T2, STF-HD F167A/I171A (Medicago truncatula, UniProt G0ZGT3 85-190, F167A;I171A).
T2 sequence: T1 sequence with F83A, I87A
The data set is described as follows: fluorescence polarization; no significant decrease vs WT; value only in figure; PAGE EMSA: 10 mM Tris-HCl pH 7.5, 100 mM KCl, 1 mM DTT, 2.5% glycerol, 5 ng/ul poly(dI-dC), 0.05% NP-40, 0.05 ug/ul protein, 5 fmol/ul DNA, room temperature 30. The conditions noted are these: protein: recombinant; tags: 6xHis-MBP removed by TEV; label: 5' 6-FAM; blunt.

The target of a further data set is T3, STF-HD S169E (Medicago truncatula, UniProt G0ZGT3 85-190, S169E).
T3 sequence: T1 sequence with S85E
The data set is described as above. The conditions noted are these: protein: recombinant; tags: 6xHis-MBP removed by TEV; label: 5' 6-FAM; blunt.

Data set [2] has as its target T1, STF-HD WT. Description: X-ray crystallography (2.1 A); PAGE EMSA: 10 mM Tris-HCl pH 7.5, 100 mM KCl, 1 mM DTT, 2.5% glycerol, 5 ng/ul poly(dI-dC), 0.05% NP-40, 0.05 ug/ul protein, 5 fmol/ul DNA, room temperature 30. The conditions noted are these: protein: recombinant; tags: 6xHis-MBP removed by TEV; chain copies: 4; blunt. (In EMSA bound probe runs differently from free probe, usually more slowly.)

In data set [3] the target is T4, STF-HD L107M/L110M/L130M (STF_3M-HD) (Medicago truncatula, UniProt G0ZGT3 85-190, L107M;L110M;L130M).
T4 sequence: T1 sequence with L23M, L26M, L46M
Description: X-ray crystallography (SAD); SeMet protein; PAGE EMSA: 10 mM Tris-HCl pH 7.5, 100 mM KCl, 1 mM DTT, 2.5% glycerol, 5 ng/ul poly(dI-dC), 0.05% NP-40, 0.05 ug/ul protein, 5 fmol/ul DNA, room temperature 30. Conditions: protein: recombinant, tags: 6xHis-MBP removed by TEV, chain copies: 4, blunt.

Another data set deals with T5, His-MBP-STF85-190 R151A (Medicago truncatula, UniProt G0ZGT3 85-190, R151A).
T5 sequence: T1 sequence with R67A
The data set is described as follows: EMSA; binding retained; PAGE EMSA: 10 mM Tris-HCl pH 7.5, 100 mM KCl, 1 mM DTT, 2.5% glycerol, 5 ng/ul poly(dI-dC), 0.05% NP-40, 0.05 ug/ul protein, 5 fmol/ul DNA, room temperature 30. Conditions: protein: recombinant; tags: N-terminal 6xHis-MBP; label: 3' biotin; blunt.

For a further data set, the target named is T6, His-MBP-STF85-190 R96A (Medicago truncatula, UniProt G0ZGT3 85-190, R96A).
T6 sequence: T1 sequence with R12A
Description: EMSA; PAGE EMSA: 10 mM Tris-HCl pH 7.5, 100 mM KCl, 1 mM DTT, 2.5% glycerol, 5 ng/ul poly(dI-dC), 0.05% NP-40, 0.05 ug/ul protein, 5 fmol/ul DNA, room temperature 30. Conditions: protein: recombinant; tags: N-terminal 6xHis-MBP; label: 3' biotin; blunt.

In the next data set the target is T7, His-MBP-STF85-190 R113Q (Medicago truncatula, UniProt G0ZGT3 85-190, R113Q).
T7 sequence: T1 sequence with R29Q
The data set is described as follows: EMSA; not affected; PAGE EMSA: 10 mM Tris-HCl pH 7.5, 100 mM KCl, 1 mM DTT, 2.5% glycerol, 5 ng/ul poly(dI-dC), 0.05% NP-40, 0.05 ug/ul protein, 5 fmol/ul DNA, room temperature 30. Conditions: protein: recombinant; tags: N-terminal 6xHis-MBP; label: 3' biotin; blunt.

B1: MtLOB39 22 bp FAM (dsDNA)
DNA 1: GCAAATTAATGATTTATTCAAG
DNA 2: CTTGAATAAATCATTAATTTGC
Take B1: the binding result with STF-HD WT [1], in the data set with STF-HD F167A/I171A and with STF-HD S169E was “binds” each time.

B2: MtLOB39 22 bp (crystal) (dsDNA)
DNA 1: GCAAATTAATGATTTATTCAAG
DNA 2: CTTGAATAAATCATTAATTTGC
Turning to B2, the binding result (with STF-HD WT [2]; in data set [3]) was “binds” each time.

B3: MtAS2 22 bp FAM (dsDNA)
DNA 1: TGGATTTAATAATGAAGTGACA
DNA 2: TGTCACTTCATTATTAAATCCA
In the case of B3, in the data set with STF-HD WT [1], the binding result was “binds”.

B4: TAAT probe (TAAT motifs) (dsDNA)
DNA 1: GCAAATTAATTATTTATTAAAG
DNA 2: CTTTAATAAATAATTAATTTGC
On to B4, for which, in the data set with His-MBP-STF85-190 R151A, the binding result is “binds”.

B5: MtAS2 22 bp biotin (dsDNA)
DNA 1: TGGATTTAATAATGAAGTGACA
DNA 2: TGTCACTTCATTATTAAATCCA
For the molecule B5, the binding result with His-MBP-STF85-190 R96A is “no binding”; with His-MBP-STF85-190 R113Q it was “binds”.
